Where “and” joins values, the source holds several entries; their conditions need not be identical. Equal entries are not always repeated.
B1: His-RXRα-LBD [human] / itself (parent)
chain: TSSANEDMPVERILEAELAVEPKTETYVEANMGLNPSSPNDPVTNICQAADKQLFTLVEWAKRIPHFSELPLDDQVILLRAGWNELLIASFSHRSIAVKDGILLATGLHVHRNSAHSAGVGAIFDRVLTELVSKMRDMQMDKTELGCLRAIVLFNPDSKGLSNPAEVEALREKVYASLEAYCKHKYPEQPGRFAKLLLRLPALRSIGLKCLEHLFFFKLIGDTPIDTFLMEMLEAPHQMT

Variants of: B1
Test: non-denaturing polyacrylamide gel electrophoresis, densitometry
Details: with itself

Row | Variant | screen value (DMSO (no K-80003, no 9-cis-RA)) | screen value (K-80003) | screen value (K-80003 + 9-cis-RA)
1 | chain 1 Q53E | 53% and 47% | 58% and 42% | –
2 | chain 1 L211D | 54% and 46% | 43% and 57% | 59% and 41%
3 | chain 1 F217A | 47% and 53% | 55% and 45% | –

Source: PMC5520057, “Modulation of nongenomic activation of PI3K signalling by tetramerization of N-terminally-cleaved RXRα” (Nature Communications, 2017)
